Laboratory results published in US20230174640A1 (VITAERIS, published 2023).

Molecular target: T1, cynomolgus monkey IL-6 (cynomolgus monkey, UniProt P79341 28-212, limits assumed)
T1 sequence (looked up): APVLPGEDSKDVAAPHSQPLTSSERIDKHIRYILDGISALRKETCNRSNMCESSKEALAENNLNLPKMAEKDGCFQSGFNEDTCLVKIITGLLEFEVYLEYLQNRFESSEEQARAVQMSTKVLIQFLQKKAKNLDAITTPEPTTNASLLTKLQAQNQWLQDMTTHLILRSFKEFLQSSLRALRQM
Assay: tissue cross-reactivity study, cynomolgus monkey tissues

B1: clazakizumab (antibody, human IgG1, kappa, N297A, V domains shown)
VH: EVQLVESGGGLVQPGGSLRLSCAASGFSLSNYYVTWVRQAPGKGLEWVGIIYGSDETAYATSAIGRFTISRDNSKNTLYLQMNSLRAEDTAVYYCARDDSSDWDAKFNLWGQGTLVTVSS
VL: AIQMTQSPSSLSASVGDRVTITCQASQSINNELSWYQQKPGKAPKLLIYRASTLASGVPSRFSGSGSGTDFTLTISSLQPDDFATYYCQQGYSLRNIDNAFGGGTKVEIKR
notes: Humanized IgG1 monoclonal antibody; also called anti-IL-6 mAb clazakizumab
B1: binds.
